Patent US20120045819A1 (published 2012)
Positions of bridges follow the written chain, without caps; N, C: chain ends. No end group written: not given here. *: point of attachment. NHNH2 = NN*

T1: native human factor VIII (nhfVIII) (human, UniProt P00451 20-2351)
T1 chain 1: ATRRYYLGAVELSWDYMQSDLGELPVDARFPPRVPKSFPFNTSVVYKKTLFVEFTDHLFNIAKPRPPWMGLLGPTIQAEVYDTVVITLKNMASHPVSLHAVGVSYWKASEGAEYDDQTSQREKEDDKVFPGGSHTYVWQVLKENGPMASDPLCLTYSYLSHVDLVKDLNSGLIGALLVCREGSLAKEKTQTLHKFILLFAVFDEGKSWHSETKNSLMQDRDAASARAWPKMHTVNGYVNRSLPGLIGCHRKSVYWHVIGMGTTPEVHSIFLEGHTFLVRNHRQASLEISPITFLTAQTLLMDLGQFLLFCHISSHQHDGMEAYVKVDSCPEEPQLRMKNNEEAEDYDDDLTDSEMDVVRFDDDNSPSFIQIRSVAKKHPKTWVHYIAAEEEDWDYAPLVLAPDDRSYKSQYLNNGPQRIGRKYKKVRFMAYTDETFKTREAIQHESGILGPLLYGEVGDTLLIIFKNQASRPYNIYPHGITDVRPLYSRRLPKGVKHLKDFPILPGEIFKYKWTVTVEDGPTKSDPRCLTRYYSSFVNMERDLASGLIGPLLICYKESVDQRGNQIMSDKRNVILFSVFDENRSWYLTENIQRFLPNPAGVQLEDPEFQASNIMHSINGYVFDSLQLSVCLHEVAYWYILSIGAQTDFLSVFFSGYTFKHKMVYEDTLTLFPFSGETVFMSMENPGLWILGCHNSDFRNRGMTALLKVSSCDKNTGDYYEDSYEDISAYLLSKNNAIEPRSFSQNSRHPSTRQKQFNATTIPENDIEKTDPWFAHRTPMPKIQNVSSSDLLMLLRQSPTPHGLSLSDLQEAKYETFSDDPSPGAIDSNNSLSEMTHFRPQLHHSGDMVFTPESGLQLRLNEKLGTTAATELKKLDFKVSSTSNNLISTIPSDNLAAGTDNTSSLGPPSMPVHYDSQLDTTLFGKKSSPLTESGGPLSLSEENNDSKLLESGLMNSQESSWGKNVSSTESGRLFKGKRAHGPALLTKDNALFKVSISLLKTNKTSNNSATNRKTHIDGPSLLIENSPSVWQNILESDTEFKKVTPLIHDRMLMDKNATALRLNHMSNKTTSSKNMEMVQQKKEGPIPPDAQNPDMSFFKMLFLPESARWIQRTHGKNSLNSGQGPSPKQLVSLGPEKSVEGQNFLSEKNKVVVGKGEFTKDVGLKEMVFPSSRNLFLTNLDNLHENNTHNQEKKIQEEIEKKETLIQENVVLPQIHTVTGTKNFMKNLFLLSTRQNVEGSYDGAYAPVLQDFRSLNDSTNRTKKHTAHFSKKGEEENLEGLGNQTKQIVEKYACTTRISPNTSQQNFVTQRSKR
T1 chain 2: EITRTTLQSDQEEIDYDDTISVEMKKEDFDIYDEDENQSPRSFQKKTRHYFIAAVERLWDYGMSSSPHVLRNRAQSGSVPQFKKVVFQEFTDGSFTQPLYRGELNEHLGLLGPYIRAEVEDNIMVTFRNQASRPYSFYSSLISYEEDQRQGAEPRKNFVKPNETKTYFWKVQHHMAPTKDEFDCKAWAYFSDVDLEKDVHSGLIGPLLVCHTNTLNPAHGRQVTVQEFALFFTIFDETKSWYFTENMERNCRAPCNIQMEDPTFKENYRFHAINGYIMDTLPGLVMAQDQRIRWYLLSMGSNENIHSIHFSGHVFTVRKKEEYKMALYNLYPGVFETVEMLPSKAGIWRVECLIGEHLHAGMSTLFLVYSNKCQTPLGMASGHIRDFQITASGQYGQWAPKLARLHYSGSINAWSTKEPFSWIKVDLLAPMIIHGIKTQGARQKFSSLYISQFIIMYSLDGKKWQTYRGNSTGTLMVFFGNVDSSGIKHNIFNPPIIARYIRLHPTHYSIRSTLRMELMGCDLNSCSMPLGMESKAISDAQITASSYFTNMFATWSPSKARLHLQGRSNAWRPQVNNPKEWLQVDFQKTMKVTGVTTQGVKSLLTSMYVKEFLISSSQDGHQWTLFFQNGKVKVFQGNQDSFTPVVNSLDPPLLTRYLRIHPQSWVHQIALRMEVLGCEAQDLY

B1: CS-458 (AEGTGDFCWVFAFDHCHDPGPEGGGS-NHNH2) (peptide)
peptide: AEGTGDFCWVFAFDHCHDPGPEGGGS-NHNH2
modifications: disulfide 8-16
notes: synthetic peptide immobilized on Toyopearl Formyl 650-M resin by hydrazone bond
B2: CS-454 (AEGTGDHLCGAWFRPCDADPGPEGGGS-NHNH2) (peptide)
peptide: AEGTGDHLCGAWFRPCDADPGPEGGGS-NHNH2
modifications: disulfide 9-16
notes: as for B1
B3: CS-456 (AEGTGDFGCSWLFPCPFDPGPEGGGS-NHNH2) (peptide)
peptide: AEGTGDFGCSWLFPCPFDPGPEGGGS-NHNH2
modifications: disulfide 9-15
notes: as for B1

Molecular target: T1, native human factor VIII (nhfVIII)
Assay: batch binding to peptide beads; fractions by sandwich ELISA; % of total recovered

Row | Binder | % of total recovered in Eluate [%] | % of total recovered in Unbound [%] | % of total recovered in Wash [%]
1 | B1 | 39 | 48 | 13
2 | B2 | 21 | 67 | 12
3 | B3 | 16 | 70 | 14
